Experimental data published in patent publication US20260151494A1 (ARO BIOTHERAPEUTICS, published 2026).
Changes are numbered by the printed parent chain.

B1: CD71-binding FN3 domain of SEQ ID NO: 546 (designed binder)
chain: MLPAPKNLVVSRVTEDSARLSWTAPDAAFDSFEIAYIEVNIQGEAIVLTVPGSERSYDLTGLKPGTEYYVHIGGVKGGPSSSPLSAIFTT
B2: CD71-binding FN3 domain of SEQ ID NO: 340 (designed binder)
chain: MSLPAPKNLVVSRVTEDSSRLSWTAPDAAFDSFEIGYFENLYLGEAIVLTVPGSERSYDLTGLKPGTEYWVQIGGVKGGNWSAPLSAIFTT
notes: not shown: C-terminal poly-histidine tag added to each FN3 domain
B3: CD71-binding FN3 domain of SEQ ID NO: 345 (designed binder)
chain: B2 chain with S19A, R20H, L41D, L43F, W70V, Q72F, N80K
notes: as for B2
B4: CD71-binding FN3 domain of SEQ ID NO: 339 (designed binder)
chain: B2 chain with S19A, F38W, N40M, L41S, L43Y, W70G, Q72S, N80R, A83L
notes: as for B2
B5: CD71-binding FN3 domain of SEQ ID NO: 338 (designed binder)
chain: B2 chain with S19A, W70C, Q72Y, G74C, N80R, W81D, A83M
notes: as for B2
B6: CD71-binding FN3 domain of SEQ ID NO: 344 (designed binder)
chain: B2 chain with V10F, S19A, F38W, L41A, L43K
notes: as for B2
B7: CD71-binding FN3 domain of SEQ ID NO: 478 (designed binder)
chain: MLPAPKNLVVSRVTEDSARLSWTAPDAAFDSFFIGYLEPQPPGEAIHLYVPGSERSYDLTGLKPGTEYNVTIQGVKGGFPSVPLIAKFTT
notes: Tencon-based FN3 domain
B8: CD71-binding FN3 domain of SEQ ID NO: 447 conjugated to KRAS2 siRNA (designed binder)
chain: B7 chain with H47Y, V82Y, I85T, K87Q
modifications: conjugated to KRAS2 tool siRNA; site and linker not stated
B9: CD71-binding FN3 domain of SEQ ID NO: 529 conjugated to KRAS2 siRNA (designed binder)
chain: B7 chain with H47D, V82L, I85Q, K87H
modifications: conjugated to KRAS2 tool siRNA; site and linker not stated
B10: CD71-binding FN3 domain of SEQ ID NO: 478 conjugated to KRAS2 siRNA (designed binder)
chain: B7 chain
modifications: conjugated to KRAS2 tool siRNA; site and linker not stated
B11: CD71-binding FN3 domain of SEQ ID NO: 476 conjugated to KRAS2 siRNA (designed binder)
chain: B7 chain with Y49Q, V82I, K87V
modifications: conjugated to KRAS2 tool siRNA; site and linker not stated
B12: CD71-binding FN3 domain of SEQ ID NO: 496 conjugated to KRAS2 siRNA (designed binder)
chain: B7 chain with H47I, Y49W, K87Q
modifications: conjugated to KRAS2 tool siRNA; site and linker not stated
B13: CD71-binding FN3 domain of SEQ ID NO: 400 conjugated to KRAS2 siRNA (designed binder)
chain: B7 chain with Y49F, V82G, I85H, K87T
modifications: conjugated to KRAS2 tool siRNA; site and linker not stated
B14: CD71-binding FN3 domain of SEQ ID NO: 508 conjugated to KRAS2 siRNA (designed binder)
chain: B7 chain with H47T, Y49S, V82E, K87I
modifications: conjugated to KRAS2 tool siRNA; site and linker not stated
B15: CD71-binding FN3 domain of SEQ ID NO: 516 conjugated to KRAS2 siRNA (designed binder)
chain: B7 chain with H47S, Y49W, V82S, I85V, K87Y
modifications: conjugated to KRAS2 tool siRNA; site and linker not stated
B16: CD71-binding FN3 domain of SEQ ID NO: 373 conjugated to KRAS2 siRNA (designed binder)
chain: B7 chain with H47S, Y49F, V82D, I85V, K87S
modifications: conjugated to KRAS2 tool siRNA; site and linker not stated
B17: CD71-binding FN3 domain of SEQ ID NO: 472 conjugated to KRAS2 siRNA (designed binder)
chain: B7 chain with H47E, V82L, I85V, K87T
modifications: conjugated to KRAS2 tool siRNA; site and linker not stated
B18: CD71-binding FN3 domain of SEQ ID NO: 516 (designed binder)
chain: B7 chain with H47S, Y49W, V82S, I85V, K87Y
notes: Tencon-based FN3 domain
B19: CD71-binding FN3 domain of SEQ ID NO: 496 (designed binder)
chain: B7 chain with H47I, Y49W, K87Q
notes: Tencon-based FN3 domain
B20: CD71-binding FN3 domain of SEQ ID NO: 529 (designed binder)
chain: B7 chain with H47D, V82L, I85Q, K87H
notes: Tencon-based FN3 domain
B21: CD71-binding FN3 domain of SEQ ID NO: 508 (designed binder)
chain: B7 chain with H47T, Y49S, V82E, K87I
notes: Tencon-based FN3 domain
B22: CD71-binding FN3 domain of SEQ ID NO: 483 (designed binder)
chain: B7 chain with H47T, Y49V, V82D, I85V, K87S
notes: Tencon-based FN3 domain
B23: CD71-binding FN3 domain of SEQ ID NO: 335 (designed binder)
chain: MSLPAPKNLVVSRVTEDSARLSWTAPDAAFDSFFIGYLEPQPPGEAIDLYVPGSERSYDLTGLKPGTEYNVTIQGVKGGFPSLPLVATFTT
notes: as for B2
B24: CD71-binding FN3 domain of SEQ ID NO: 337 (designed binder)
chain: B23 chain with D48H, L83I, V86I, T88S
notes: as for B2
B25: CD71-binding FN3 domain of SEQ ID NO: 342 (designed binder)
chain: B23 chain with D48V, Y50T, L83E, V86I, T88N
notes: as for B2
B26: CD71-binding FN3 domain of SEQ ID NO: 343 (designed binder)
chain: B23 chain with D48A, Y50W, L83E
notes: as for B2
B27: CD71-binding FN3 domain of SEQ ID NO: 341 (designed binder)
chain: B23 chain with D48E, T88I
notes: as for B2
B28: CD71-binding FN3 domain of SEQ ID NO: 334 (designed binder)
chain: MSLPAPKNLVVSRVTEDSARLSWTAPDAAFDSFEIAYQELSLWGEAIVLTVPGSERSYDLTGLKPGTEYWVQIGGVKGGIWSSPLVASFTT
notes: as for B2
B29: CD71-binding FN3 domain of SEQ ID NO: 336 (designed binder)
chain: MSLPAPKNLVVSRVTEDSARLSWTAPDAAFDSFNIMYHEHYDNGEAIVLTVPGSERSYDLTGLKPGTEYSVVINGVKGGPHSAPLSAIFTT
notes: as for B2

Key:
[1] = molecular target: T1, human CD71 extracellular domain (human, UniProt P02786 89-760); assay: primary ELISA screen, Screen 4, luminescence
T1 construct: also called hCD71; CD71-ECD

[2] = molecular target: T2, apical domain of human CD71 (human, UniProt P02786 189-383, limits assumed); assay: primary ELISA screen, Screen 4, luminescence
T2 construct: domain: apical domain; Screen 4 panned against human apical domains; also called human apical domain
T2 sequence (P02786 189-383 limits assumed): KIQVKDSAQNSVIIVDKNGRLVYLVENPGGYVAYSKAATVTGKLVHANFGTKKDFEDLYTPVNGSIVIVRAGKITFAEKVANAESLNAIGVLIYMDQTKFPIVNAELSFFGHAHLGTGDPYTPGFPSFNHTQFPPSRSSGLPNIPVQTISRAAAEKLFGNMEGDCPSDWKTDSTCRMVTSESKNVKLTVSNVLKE

[3] = molecular target: T2, apical domain of human CD71; assay: primary ELISA screen, Screen 4; signal on apical domain over signal on HSA
[4] = molecular target: T1, human CD71 extracellular domain; assay: primary ELISA screen, Screen 4; signal on hCD71 over signal on HSA
[5] = molecular target: T3, apical domain of CD71 (Screen 3: 'cynomolgus apical domain of human CD71') (cynomolgus (as 'cynomolgus apical …)); assay: primary ELISA screen, apical domain of CD71
T3 construct: domain: apical domain; Species is told ambiguously

[6] = molecular target: T4, human CD71 extracellular domain (human, UniProt P02786 89-760); assay: primary ELISA screen, human CD71-ECD
T4 construct: also called hCD71; human CD71-ECD

[7] = molecular target: T4, human CD71 extracellular domain; assay: primary ELISA screen, RLU on human CD71-ECD over RLU on HSA
[8] = molecular target: T3, apical domain of CD71 (Screen 3: …); assay: primary ELISA screen, RLU on apical domain over RLU on HSA
[9] = molecular target: T5, human CD71 on cells (SKBR3; SW620-rLuc-KRAS) (human, UniProt P02786 1-760); assay: cell-based or functional assay
T5 sequence (P02786 whole entry, the tested form may be a part): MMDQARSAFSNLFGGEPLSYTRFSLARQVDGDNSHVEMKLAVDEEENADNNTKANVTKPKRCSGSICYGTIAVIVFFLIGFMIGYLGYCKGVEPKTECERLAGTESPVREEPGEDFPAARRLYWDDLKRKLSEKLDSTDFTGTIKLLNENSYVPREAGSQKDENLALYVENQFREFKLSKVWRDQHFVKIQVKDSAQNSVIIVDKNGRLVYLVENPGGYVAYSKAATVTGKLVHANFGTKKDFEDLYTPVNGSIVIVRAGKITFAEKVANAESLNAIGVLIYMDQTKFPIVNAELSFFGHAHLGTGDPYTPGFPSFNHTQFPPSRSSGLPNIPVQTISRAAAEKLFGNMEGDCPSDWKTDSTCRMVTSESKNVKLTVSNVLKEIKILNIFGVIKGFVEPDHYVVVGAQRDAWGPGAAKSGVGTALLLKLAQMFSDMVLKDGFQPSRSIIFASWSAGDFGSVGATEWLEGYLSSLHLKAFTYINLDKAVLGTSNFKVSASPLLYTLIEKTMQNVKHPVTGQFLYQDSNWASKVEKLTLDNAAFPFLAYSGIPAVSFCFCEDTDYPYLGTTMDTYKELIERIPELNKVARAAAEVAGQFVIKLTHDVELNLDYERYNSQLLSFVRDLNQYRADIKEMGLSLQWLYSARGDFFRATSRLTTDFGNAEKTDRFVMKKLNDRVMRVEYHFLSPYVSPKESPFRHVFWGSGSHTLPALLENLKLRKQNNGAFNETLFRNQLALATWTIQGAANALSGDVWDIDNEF

[10] = molecular target: T6, cynomolgus monkey CD71 extracellular domain (CD71-ECD) (cynomolgus monkey, UniProt H9EXL1 89-760 (rhesus entry)); assay: capture ELISA, 20 nM antigen on Neutravidin plate, FN3 titrated 250 to 0.3 nM
T6 construct: extracellular domain; It was captured on a Neutravidin plate; also called cynomolgus CD71-ECD
T6 sequence (chain, as listed by the source): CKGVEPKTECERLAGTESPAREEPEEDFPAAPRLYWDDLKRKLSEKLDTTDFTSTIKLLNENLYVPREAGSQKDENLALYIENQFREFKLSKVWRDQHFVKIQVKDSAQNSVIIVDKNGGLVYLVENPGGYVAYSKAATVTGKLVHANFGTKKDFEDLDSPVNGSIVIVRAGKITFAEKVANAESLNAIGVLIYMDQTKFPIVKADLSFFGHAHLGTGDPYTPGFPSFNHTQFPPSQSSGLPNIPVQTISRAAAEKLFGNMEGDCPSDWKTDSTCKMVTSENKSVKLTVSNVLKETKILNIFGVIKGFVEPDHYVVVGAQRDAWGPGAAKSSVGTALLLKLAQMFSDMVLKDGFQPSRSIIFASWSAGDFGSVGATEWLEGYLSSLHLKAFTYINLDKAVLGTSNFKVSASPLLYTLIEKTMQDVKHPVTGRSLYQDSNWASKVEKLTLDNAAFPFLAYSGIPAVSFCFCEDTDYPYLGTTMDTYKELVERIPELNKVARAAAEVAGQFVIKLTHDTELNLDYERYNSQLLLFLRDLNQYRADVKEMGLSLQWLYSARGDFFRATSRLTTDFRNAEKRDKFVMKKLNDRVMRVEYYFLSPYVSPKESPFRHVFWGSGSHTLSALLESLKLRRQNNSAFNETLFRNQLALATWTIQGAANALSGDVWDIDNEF
Method: (§1) Select CD71-binding FN3 domains identified in Example 4 above were chosen to determine their binding to both human and cynomolgus monkey CD71 extracellular domain (CD71-ECD). Capture ELISA using CD71 binding to FN3 domains was performed, with the FN3 domains being titrated from 250 nM to 0.3 nM. 20 nM of antigen was incubated on a Neutravidin® plate for 1 hour at room temperature. The FN3 domains were incubated for 16 hours at room temperature.

[11] = molecular target: T7, human CD71 extracellular domain (CD71-ECD) (human, UniProt P02786 89-760); assay: as above
T7 construct: It was captured on a Neutravidin plate; also called hCD71; transferrin receptor 1 ECD
T7 sequence (P02786 89-760): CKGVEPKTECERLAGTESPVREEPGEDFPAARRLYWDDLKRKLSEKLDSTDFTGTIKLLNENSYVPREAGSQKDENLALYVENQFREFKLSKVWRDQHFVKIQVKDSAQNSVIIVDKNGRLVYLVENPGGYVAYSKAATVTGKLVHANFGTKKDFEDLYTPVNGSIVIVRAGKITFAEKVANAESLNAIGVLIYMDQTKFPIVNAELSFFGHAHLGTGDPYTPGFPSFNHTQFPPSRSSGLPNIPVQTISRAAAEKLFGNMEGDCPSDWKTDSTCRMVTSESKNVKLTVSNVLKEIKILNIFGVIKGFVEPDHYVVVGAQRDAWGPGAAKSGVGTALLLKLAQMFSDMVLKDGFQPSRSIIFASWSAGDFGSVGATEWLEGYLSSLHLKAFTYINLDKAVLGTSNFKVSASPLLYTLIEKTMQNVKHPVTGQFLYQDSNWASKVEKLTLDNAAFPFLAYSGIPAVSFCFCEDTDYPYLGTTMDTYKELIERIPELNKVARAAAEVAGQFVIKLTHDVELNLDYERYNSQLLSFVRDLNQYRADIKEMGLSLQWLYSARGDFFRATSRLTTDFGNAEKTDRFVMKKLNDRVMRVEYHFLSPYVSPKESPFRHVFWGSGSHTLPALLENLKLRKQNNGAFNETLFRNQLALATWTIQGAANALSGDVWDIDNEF
Method: as §1

[12] = molecular target: T5, human CD71 on cells (SKBR3; …); assay: cell-based or functional assay; remark: listed apart in the source

Binder | RLU [5] [RLU] | RLU [6] [RLU] | hCD71:HSA [7] [ratio] | Apical domain:HSA [8] [ratio] | LSA EC50 (luciferase reporter assay, SW620-rLuc-KRAS cells, 72 h) [12] [nM] | also measured
B1 | – | – | – | – | – | hCD71, RLU [1]: 3.53e+06 RLU; Apical domain, RLU [2]: 4.4e+06 RLU; Apical domain:HSA [3]: 466 ratio; hCD71:HSA [4]: 374 ratio
B2 | 5.1e+06 | 3e+06 | 106 | 180 | – | –
B3 | 4.59e+06 | 2.55e+06 | 108 | 195 | – | –
B4 | 4.86e+06 | 2.14e+06 | 303 | 690 | – | –
B5 | 5.02e+06 | 2.29e+06 | 57 | 125 | – | –
B6 | 3.4e+06 | 1.33e+06 | 36 | 92 | – | –
B7 | – | – | – | – | – | CTG EC50 (CellTiter-Glo luminescent assay, SKBR3 cells, 72 h) [9]: 0.6 nM; EC50 [10]: 0.6 nM; EC50 [11]: 0.4 nM
B8 | – | – | – | – | 0.53 | –
B9 | – | – | – | – | 0.52 | –
B10 | – | – | – | – | 0.21 | –
B11 | – | – | – | – | 0.31 | –
B12 | – | – | – | – | 0.22 | –
B13 | – | – | – | – | 0.24 | –
B14 | – | – | – | – | 0.6 | –
B15 | – | – | – | – | 0.6 | –
B16 | – | – | – | – | 0.15 | –
B17 | – | – | – | – | 0.15 | –
B18 | – | – | – | – | – | CTG EC50 (CellTiter-Glo luminescent assay, SKBR3 cells, 72 h) [9]: 8.4 nM; EC50 [10]: 10.6 nM; EC50 [11]: 2.2 nM
B19 | – | – | – | – | – | CTG EC50 (CellTiter-Glo luminescent assay, SKBR3 cells, 72 h) [9]: 3 nM; EC50 [10]: 10.6 nM; EC50 [11]: 3.9 nM
B20 | – | – | – | – | – | CTG EC50 (CellTiter-Glo luminescent assay, SKBR3 cells, 72 h) [9]: 7 nM; EC50 [10]: 2.7 nM; EC50 [11]: 2.3 nM
B21 | – | – | – | – | – | CTG EC50 (CellTiter-Glo luminescent assay, SKBR3 cells, 72 h) [9]: 1.5 nM; EC50 [10]: 14.2 nM; EC50 [11]: 5.5 nM
B22 | – | – | – | – | – | CTG EC50 (CellTiter-Glo luminescent assay, SKBR3 cells, 72 h) [9]: 9.8 nM; EC50 [10]: 23 nM; EC50 [11]: 14.1 nM
B23 | 5.9e+06 | 5.34e+06 | 93 | 103 | – | –
B24 | 6.62e+06 | 5.28e+06 | 307 | 385 | – | –
B25 | 5.41e+06 | 4.44e+06 | 10 | 13 | – | –
B26 | 5.42e+06 | 5.25e+06 | 172 | 178 | – | –
B27 | 5.31e+06 | 5.35e+06 | 92 | 92 | – | –
B28 | 5.45e+06 | 2.7e+06 | 188 | 378 | – | –
B29 | 4.31e+06 | 1.15e+06 | 68 | 256 | – | –
